For this assay, the target named is T1, HTN-CK2α^WT with O-GlcNAcylation at Ser347 induced by OGTAC-1 (cells co-expressing fOGT) (UniProt P68400 1-391, O-GlcNAc at Ser347 (level increased by about 2-fold with 100 nM OGTAC-1 at 8 h)).
T1 construct: casein kinase II subunit α (CK2α); Same construct as m1; only a part of the copies is modified (the level is raised over the baseline, not complete); also called HTN-CK2α (OGTAC-1 treated); CK2α with higher O-GlcNAcylation level; source: transfected cells co-expressing fOGT, treated with OGTAC-1 for 8 h, in lysate; not shown: HaloTag, N-terminal, kept
T1 sequence (P68400 whole entry): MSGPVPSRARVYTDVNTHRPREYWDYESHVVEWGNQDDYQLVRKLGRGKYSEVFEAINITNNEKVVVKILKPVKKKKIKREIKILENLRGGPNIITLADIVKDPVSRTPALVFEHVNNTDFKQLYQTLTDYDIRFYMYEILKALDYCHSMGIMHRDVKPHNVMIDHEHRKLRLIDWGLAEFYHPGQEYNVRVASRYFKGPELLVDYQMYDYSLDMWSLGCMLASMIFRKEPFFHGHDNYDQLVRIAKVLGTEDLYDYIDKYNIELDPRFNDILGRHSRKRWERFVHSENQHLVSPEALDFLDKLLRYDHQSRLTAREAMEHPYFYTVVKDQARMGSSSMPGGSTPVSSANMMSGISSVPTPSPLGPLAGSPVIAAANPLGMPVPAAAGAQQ
As to the kind of experiment: co-IP; Flag-CRBN, HTN-CK2α (WT or S347A) and fOGT (WT or K852A) overexpressed in cells; DMSO or 100 nM OGTAC-1 for 8 h; HaloTrap IP; anti-FlagTag and anti-HA-Tag blots. Conditions: partners not purified.

B1: Flag-CRBN (cereblon) (natural protein, UniProt Q96SW2 1-442, looked up)
chain: MAGEGDQQDAAHNMGNHLPLLPAESEEEDEMEVEDQDSKEAKKPNIINFDTSLPTSHTYLGADMEEFHGRTLHDDDSCQVIPVLPQVMMILIPGQTLPLQLFHPQEVSMVRNLIQKDRTFAVLAYSNVQEREAQFGTTAEIYAYREEQDFGIEIVKVKAIGRQRFKVLELRTQSDGIQQAKVQILPECVLPSTMSAVQLESLNKCQIFPSKPVSREDQCSYKWWQKYQKRKFHCANLTSWPRWLYSLYDAETLMDRIKKQLREWDENLKDDSLPSNPIDFSYRVAACLPIDDVLRIQLLKIGSAIQRLRCELDIMNKCTSLCCKQCQETEITTKNEIFSLSLCGPMAAYVNPHGYVHETLTVYKACNLNLIGRPSTEHSWFPGYAWTVAQCKICASHIGWKFTATKKDMSPQKFWGLTRSALLPTIPDTEDEISPDKVILCL
notes: cereblon (CRBN), plasmid bought from Addgene; source: co-IP methods: HeLa or HEK293T
As for B1, the “fold change of co-IPed CRBN over the DMSO treatment” value was roughly 2 fold.
